We go through five molecules from patent publication US20260049134A1 (UNIVERSITY OF FLORIDA RESEARCH FOUNDATION, published 2026).

The target of one experiment is T1, ICAM1-Fc (R&D Systems) (human, UniProt P05362 28-480).
T1 construct: Bought; also called ICAM-1/CD54; not shown: Fc of the bought fusion protein
Briefly: ELISA on coated ICAM1-Fc, 150 ng IgG1; None 0.060. The protocol: (§1) Recombinant purified ECDs (50-150 ng) of each putative target protein were coated, incubated with 150 ng of the indicated primary antibody, and binding was detected using a peroxidase-conjugated anti-human Fab secondary antibody. Heatmap represents averages of technical triplicates. (8B) Target validation via siRNA knockdown. H929 cells were transfected with siRNA pools targeting the putative antibody targets ICAM1, CADM1, and PTPRG. Cells were then subjected to cognate IgG binding analysis via flow cytometry. (NT, non-targeting siRNA).
(§2) ELISA ELISA was conducted as described previously. Briefly, 50-150 ng of antigen was coated overnight in half-area 96-well plates at 4° C., blocked with 3% BSA at 37° C. for 1 h, and 150 ng of chimeric rabbit/human IgG1 was added, incubating for 2 h at 37° C. […] After incubating at 37° C. for 15 min-1 h (depending on intensity of controls), data were acquired using a SpectraMax M5 plate reader (Molecular Devices).

The next experiment addresses T2, SLAMF7.
T2 construct: coated protein in the ELISA; also called SLAMF7-StrepTag
T2 chain: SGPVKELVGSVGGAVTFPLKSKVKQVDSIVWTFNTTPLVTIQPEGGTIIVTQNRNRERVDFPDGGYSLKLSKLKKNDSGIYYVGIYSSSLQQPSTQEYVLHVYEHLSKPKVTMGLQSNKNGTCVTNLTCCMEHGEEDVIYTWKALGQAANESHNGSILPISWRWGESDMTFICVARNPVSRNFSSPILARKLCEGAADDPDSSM
In words: ELISA on coated SLAMF7-StrepTag, 150 ng IgG1; None 0.047. The protocol: as §1, §2
Background: In an ELISA, binding on a coated surface is turned into a signal by an enzyme label.

Experiment [1] addresses T3, PTPRG-Fc (ECD of human PTPRG, aa 20-736, fused to human Fc gamma 1) (human, UniProt P23470 20-736).
T3 construct: Made in-house in Expi293 cells; Used in ELISA and SPR; also called recombinant PTPRG-Fc; PTRPG; not shown: human IgG1 Fc (Fc gamma 1) after the hinge
T3 sequence: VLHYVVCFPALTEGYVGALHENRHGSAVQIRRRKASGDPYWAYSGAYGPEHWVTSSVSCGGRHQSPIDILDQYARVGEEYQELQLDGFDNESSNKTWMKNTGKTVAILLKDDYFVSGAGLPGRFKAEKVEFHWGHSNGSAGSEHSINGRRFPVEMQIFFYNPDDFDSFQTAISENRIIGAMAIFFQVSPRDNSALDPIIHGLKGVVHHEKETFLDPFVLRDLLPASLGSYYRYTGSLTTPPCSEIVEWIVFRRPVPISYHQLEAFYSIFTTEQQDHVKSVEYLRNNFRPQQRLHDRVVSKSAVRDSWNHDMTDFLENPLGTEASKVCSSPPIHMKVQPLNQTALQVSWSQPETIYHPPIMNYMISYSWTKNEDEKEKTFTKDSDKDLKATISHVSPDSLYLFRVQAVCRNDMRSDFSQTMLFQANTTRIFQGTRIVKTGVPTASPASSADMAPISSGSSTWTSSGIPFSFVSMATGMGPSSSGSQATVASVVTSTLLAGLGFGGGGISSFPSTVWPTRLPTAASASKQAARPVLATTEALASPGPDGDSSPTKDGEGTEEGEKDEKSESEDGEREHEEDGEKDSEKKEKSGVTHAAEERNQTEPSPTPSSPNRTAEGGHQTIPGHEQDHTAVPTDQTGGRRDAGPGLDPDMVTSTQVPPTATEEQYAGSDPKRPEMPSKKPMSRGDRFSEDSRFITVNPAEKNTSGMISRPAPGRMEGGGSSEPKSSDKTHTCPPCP
Briefly: ELISA on coated PTPRG-Fc, 150 ng IgG1; None 0.117. How it is done: as §1, §2

Another experiment addresses T4, SELL (L-Selectin).
T4 construct: coated protein in the ELISA; also called SELL-Fc-His (R&D Systems)
T4 chain: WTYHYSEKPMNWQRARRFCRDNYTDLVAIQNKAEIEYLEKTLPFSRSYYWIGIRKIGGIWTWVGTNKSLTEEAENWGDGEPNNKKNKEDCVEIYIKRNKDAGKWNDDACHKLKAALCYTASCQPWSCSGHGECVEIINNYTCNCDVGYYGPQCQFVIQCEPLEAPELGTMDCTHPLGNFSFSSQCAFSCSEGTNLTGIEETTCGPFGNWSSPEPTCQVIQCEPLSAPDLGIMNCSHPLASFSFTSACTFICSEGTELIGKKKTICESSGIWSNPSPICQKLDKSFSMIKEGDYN
In words: ELISA on coated SELL-Fc-His, 150 ng IgG1; None 0.096. The protocol:
as §1, §2

For another experiment, the target named is T5, IGSF11 (VSIG3).
T5 construct: coated protein in the ELISA; also called IGSF11-Fc (R&D Systems)
T5 chain: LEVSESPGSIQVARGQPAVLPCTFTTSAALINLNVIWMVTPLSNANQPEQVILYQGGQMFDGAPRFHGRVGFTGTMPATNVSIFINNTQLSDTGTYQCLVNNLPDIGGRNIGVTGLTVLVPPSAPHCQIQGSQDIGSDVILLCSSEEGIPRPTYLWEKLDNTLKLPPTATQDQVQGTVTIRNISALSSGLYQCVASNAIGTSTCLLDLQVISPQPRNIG
Briefly: ELISA on coated IGSF11-Fc, 150 ng IgG1; None 0.090. The protocol: as §1, §2

T1 sequence (P05362 28-480): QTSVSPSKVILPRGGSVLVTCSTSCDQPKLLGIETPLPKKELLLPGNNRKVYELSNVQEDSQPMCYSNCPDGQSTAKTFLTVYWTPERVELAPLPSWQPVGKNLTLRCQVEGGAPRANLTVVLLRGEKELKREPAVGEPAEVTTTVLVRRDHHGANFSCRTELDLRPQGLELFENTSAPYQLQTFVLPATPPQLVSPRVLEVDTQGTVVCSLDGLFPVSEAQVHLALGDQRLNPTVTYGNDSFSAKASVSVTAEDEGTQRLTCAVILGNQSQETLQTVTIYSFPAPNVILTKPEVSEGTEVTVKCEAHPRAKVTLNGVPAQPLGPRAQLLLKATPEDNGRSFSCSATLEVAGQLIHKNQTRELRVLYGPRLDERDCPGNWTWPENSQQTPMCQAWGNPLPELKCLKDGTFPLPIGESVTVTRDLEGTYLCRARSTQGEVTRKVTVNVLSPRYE

B1: HW-97 chimeric rabbit-human IgG1 LA/LA/PG (antibody, V domains shown)
VH: QKQLVESGGRLVTPGTPLTLTCTVTGIDLSSHGMSWVRQAPGKGLEWIGVIYPSGSTWYASWARGRFTISKTSTTVDLKMTSLTTEDTATHFCARGDVGGADNNIWGPGTLVTVSS
VL: SFVLTQPASVQVDLGQTVSLTCTAETLSRSYASWYQQKPGQAPVLLIYRDTSRPSGVPDRFSGSSSGNTATLTISGAQAGDEADYYCATSDGSGSSYQYVFGGGTQLTVTG
notes: Fc-silenced (L234A/L235A/P329G) IgG1, lambda; Alexa Fluor 647-labeled in single-step flow cytometry; Prototype of cluster C-97
On to B1, for which the “ELISA Absorbance (405 nm-570 nm)” value worked out at 0.081 with ICAM1-Fc (R&D Systems); 0.051 with SLAMF7; 0.096 in experiment [1]; 0.075 with SELL (L-Selectin); 0.078 with IGSF11 (VSIG3).

B2: HW-113 chimeric rabbit-human IgG1 LA/LA/PG (antibody, V domains shown)
VH: QKQLVESGGGLVQPGGSLTLTCTVSGFSLNKYYMGWFRQAPGKGLEWIGVISRSGDTYYSSWAKGRFTISKASTTVDLRITSPTTEDTATYFCARDASSPGFHGDRLDLWGQGTLVTVSS
VL: SFVLTQPASVQVNLGQTVSLTCTADTLSRSYASWYQQKPGQAPVLLIYRDTSRPSGVPDRFSGSSSGNTATLTISGAQAGDEADYYCATSDGIGSNYLWVFGGGTQLTVTG
notes: Fc-silenced (L234A/L235A/P329G) IgG1, lambda; Alexa Fluor 647-labeled in single-step flow cytometry
B2: the “ELISA Absorbance (405 nm-570 nm)” value with ICAM1-Fc (R&D Systems) was 0.498; in the experiment with SLAMF7, 0.048; in experiment [1], 0.071; in the experiment with SELL (L-Selectin), 0.088; in the experiment with IGSF11 (VSIG3), 0.075.

B3: HW-101 chimeric rabbit-human IgG1 LA/LA/PG (antibody, V domains shown)
VH: QEQLVESGGRLVTPGTPLTLTCKASGFSLGKYDMSWVRQAPGKGLEWIGTIYAGSGSTWYASWAKGRFTISKTSTTVDLKMTSLTTEDTATYFCARDFLGVNSIWGPGTLVTISS
VL: SFVLTQPASVQVNLGQTVSLTCTADTLSRSYASWYQQKPDQAPVLLIHRDTSRPSGVPDRFSGSNSGNTATLTISGAQAGDEADYYCATSDGSGSNFHFVFGGGTQLTVTG
notes: Fc-silenced (L234A/L235A/P329G) IgG1, lambda; Alexa Fluor 647-labeled in single-step flow cytometry; Cluster C-97
As to B3, the “ELISA Absorbance (405 nm-570 nm)” value in the experiment with ICAM1-Fc (R&D Systems) turned out to be 0.055; with SLAMF7, 0.046; in experiment [1], 0.097; in the experiment with SELL (L-Selectin), 0.072; in the experiment with IGSF11 (VSIG3), 0.066.

B4: HW-81 chimeric rabbit-human IgG1 LA/LA/PG (antibody, V domains shown)
VH: QKQLVESGGGLVTPGGTLTLTCTVSGFSLSSNGVSWVRQAPGKGLEYIGLIRSIGSTYYATWAKGRFTISKTSTTVDLKITSPTTEDTATYFCARGGYRNGFKLWGPGTLVTVSS
VL: QPVLTQSPSVSAALGASAKLTCTLSSAHKTYYIEWYQQQHPGKAPRYLMQLQSDGSYTKGTGVPDRFSGSSSGADRYLIISSVQAEDEADYICGVIDSAVYVFGGGTQLTVTG
notes: Fc-silenced (L234A/L235A/P329G) IgG1, lambda; Alexa Fluor 647-labeled in single-step flow cytometry; Cluster C-45
For B4, the “ELISA Absorbance (405 nm-570 nm)” value with ICAM1-Fc (R&D Systems) amounted to 0.051; with SLAMF7, 0.054; in experiment [1], 0.122; in the experiment with SELL (L-Selectin), 0.083; in the experiment with IGSF11 (VSIG3) it was 0.065.

B5: HW-56 chimeric rabbit-human IgG1 LA/LA/PG (antibody, V domains shown)
VH: QSVKESEGGLFKPTDTLTLTCTASGFTVSTNAVTWVRQAPGNGLEYIGTIGRSGSAYFASWAKRRSTLTRDINLNTVTLKMTSLTAADTATYFCVRGSPGYRTAISIWGPGTLVTISS
VL: AVMTQTPSSTSAAVEGTVTINCQASQSISNRLSWFQQKPGQPPKLLIYQASTLASGVPSRFKGSGSGTEFTLTISGVQREDAATYYCLGSYSSSDASFGGGTKLEIKR
notes: Fc-silenced (L234A/L235A/P329G) IgG1, kappa; Alexa Fluor 647-labeled in single-step flow cytometry; Cluster C-45
For the molecule B5, the “ELISA Absorbance (405 nm-570 nm)” value with ICAM1-Fc (R&D Systems) was 0.074; in the experiment with SLAMF7, 0.074; in experiment [1] it was 0.102; with SELL (L-Selectin), 0.117; with IGSF11 (VSIG3), 0.076.
